Data: US20110294738A1, “PTHR1 RECEPTOR COMPOUNDS” (priority 2008, published 2011)
Values belong to the binder of their own block, whether it stands above or below them. * marks the point of attachment. Palmitoyl = CCCCCCCCCCCCCCCC(=O)*

Biological target: PTHR1 receptor
Sequence (P25961 whole entry): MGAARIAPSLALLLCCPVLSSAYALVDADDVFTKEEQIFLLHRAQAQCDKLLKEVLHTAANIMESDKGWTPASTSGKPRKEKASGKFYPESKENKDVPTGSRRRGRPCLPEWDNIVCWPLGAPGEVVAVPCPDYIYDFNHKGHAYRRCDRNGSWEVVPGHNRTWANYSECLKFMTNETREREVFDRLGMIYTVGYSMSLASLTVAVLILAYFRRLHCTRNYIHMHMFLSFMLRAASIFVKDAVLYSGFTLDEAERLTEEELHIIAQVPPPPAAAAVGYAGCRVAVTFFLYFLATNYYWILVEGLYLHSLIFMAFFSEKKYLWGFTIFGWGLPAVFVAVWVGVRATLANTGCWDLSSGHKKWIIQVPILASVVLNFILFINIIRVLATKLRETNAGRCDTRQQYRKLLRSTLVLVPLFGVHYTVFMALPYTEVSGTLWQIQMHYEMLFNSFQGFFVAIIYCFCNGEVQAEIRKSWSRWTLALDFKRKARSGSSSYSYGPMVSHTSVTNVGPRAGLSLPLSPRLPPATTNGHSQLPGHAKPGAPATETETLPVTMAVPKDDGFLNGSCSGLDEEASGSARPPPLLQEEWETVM

Fold Shift of EC50: 2.1 fold | Inhibition of Maximal Response: 6.4%
B1: Compound 53 (peptide)
peptide: Palmitoyl-KLRETNAGRSDTRQQY-NH2
SMILES: CCCCCCCCCCCCCCCC(=O)N[C@@H](CCCCN)C(=O)N[C@@H](CC(C)C)C(=O)N[C@@H](CCCNC(=N)N)C(=O)N[C@@H](CCC(=O)O)C(=O)N[C@H](C(=O)N[C@@H](CC(N)=O)C(=O)N[C@@H](C)C(=O)NCC(=O)N[C@@H](CCCNC(=N)N)C(=O)N[C@@H](CO)C(=O)N[C@@H](CC(=O)O)C(=O)N[C@H](C(=O)N[C@@H](CCCNC(=N)N)C(=O)N[C@@H](CCC(N)=O)C(=O)N[C@@H](CCC(N)=O)C(=O)N[C@@H](Cc1ccc(O)cc1)C(N)=O)[C@@H](C)O)[C@@H](C)O

Fold Shift of EC50: 1.1 fold | Inhibition of Maximal Response: 35.6%
B2: Compound 37 (peptide)
peptide: Palmitoyl-LHSLIFMAFFSEKKYLWGFT-NH2
SMILES: CCCCCCCCCCCCCCCC(=O)N[C@@H](CC(C)C)C(=O)N[C@@H](Cc1c[nH]cn1)C(=O)N[C@@H](CO)C(=O)N[C@@H](CC(C)C)C(=O)N[C@H](C(=O)N[C@@H](Cc1ccccc1)C(=O)N[C@@H](CCSC)C(=O)N[C@@H](C)C(=O)N[C@@H](Cc1ccccc1)C(=O)N[C@@H](Cc1ccccc1)C(=O)N[C@@H](CO)C(=O)N[C@@H](CCC(=O)O)C(=O)N[C@@H](CCCCN)C(=O)N[C@@H](CCCCN)C(=O)N[C@@H](Cc1ccc(O)cc1)C(=O)N[C@@H](CC(C)C)C(=O)N[C@@H](Cc1c[nH]c2ccccc12)C(=O)NCC(=O)N[C@@H](Cc1ccccc1)C(=O)N[C@H](C(N)=O)[C@@H](C)O)[C@@H](C)CC

Fold Shift of EC50: 0.7 fold | Inhibition of Maximal Response: 15.2%
B3: Compound 14 (peptide)
peptide: Palmitoyl-LAYFRRLHSTRN-NH2
SMILES: CCCCCCCCCCCCCCCC(=O)N[C@@H](CC(C)C)C(=O)N[C@@H](C)C(=O)N[C@@H](Cc1ccc(O)cc1)C(=O)N[C@@H](Cc1ccccc1)C(=O)N[C@@H](CCCNC(=N)N)C(=O)N[C@@H](CCCNC(=N)N)C(=O)N[C@@H](CC(C)C)C(=O)N[C@@H](Cc1c[nH]cn1)C(=O)N[C@@H](CO)C(=O)N[C@H](C(=O)N[C@@H](CCCNC(=N)N)C(=O)N[C@@H](CC(N)=O)C(N)=O)[C@@H](C)O

Fold Shift of EC50: 0.7 fold | Inhibition of Maximal Response: 29.2%
B4: Compound 13 (peptide)
peptide: Palmitoyl-GGYFRRLHSTRNYIH-NH2
SMILES: CCCCCCCCCCCCCCCC(=O)NCC(=O)NCC(=O)N[C@@H](Cc1ccc(O)cc1)C(=O)N[C@@H](Cc1ccccc1)C(=O)N[C@@H](CCCNC(=N)N)C(=O)N[C@@H](CCCNC(=N)N)C(=O)N[C@@H](CC(C)C)C(=O)N[C@@H](Cc1c[nH]cn1)C(=O)N[C@@H](CO)C(=O)N[C@H](C(=O)N[C@@H](CCCNC(=N)N)C(=O)N[C@@H](CC(N)=O)C(=O)N[C@@H](Cc1ccc(O)cc1)C(=O)N[C@H](C(=O)N[C@@H](Cc1c[nH]cn1)C(N)=O)[C@@H](C)CC)[C@@H](C)O

Fold Shift of EC50: 1.5 fold | Inhibition of Maximal Response: 28.3%
Binder: Palmitoyl-LYLHSLIFMAFFSEKK-NH2 (not fully specified) [Compound 40]

Fold Shift of EC50: 1.1 fold | Inhibition of Maximal Response: 19.8%
B5: Compound 11 (peptide)
peptide: Palmitoyl-GSYFRRLHSTRNYIH-NH2
SMILES: CCCCCCCCCCCCCCCC(=O)NCC(=O)N[C@@H](CO)C(=O)N[C@@H](Cc1ccc(O)cc1)C(=O)N[C@@H](Cc1ccccc1)C(=O)N[C@@H](CCCNC(=N)N)C(=O)N[C@@H](CCCNC(=N)N)C(=O)N[C@@H](CC(C)C)C(=O)N[C@@H](Cc1c[nH]cn1)C(=O)N[C@@H](CO)C(=O)N[C@H](C(=O)N[C@@H](CCCNC(=N)N)C(=O)N[C@@H](CC(N)=O)C(=O)N[C@@H](Cc1ccc(O)cc1)C(=O)N[C@H](C(=O)N[C@@H](Cc1c[nH]cn1)C(N)=O)[C@@H](C)CC)[C@@H](C)O

Fold Shift of EC50: 0.9 fold | Inhibition of Maximal Response: 26.6%
B6: Compound 12 (peptide)
peptide: Palmitoyl-SSYFRRLHSTRNYIH-NH2
SMILES: CCCCCCCCCCCCCCCC(=O)N[C@@H](CO)C(=O)N[C@@H](CO)C(=O)N[C@@H](Cc1ccc(O)cc1)C(=O)N[C@@H](Cc1ccccc1)C(=O)N[C@@H](CCCNC(=N)N)C(=O)N[C@@H](CCCNC(=N)N)C(=O)N[C@@H](CC(C)C)C(=O)N[C@@H](Cc1c[nH]cn1)C(=O)N[C@@H](CO)C(=O)N[C@H](C(=O)N[C@@H](CCCNC(=N)N)C(=O)N[C@@H](CC(N)=O)C(=O)N[C@@H](Cc1ccc(O)cc1)C(=O)N[C@H](C(=O)N[C@@H](Cc1c[nH]cn1)C(N)=O)[C@@H](C)CC)[C@@H](C)O

Fold Shift of EC50: 1.1 fold | Inhibition of Maximal Response: 24.1%
B7: Compound 10 (peptide)
peptide: Palmitoyl-LAYFRRLHSTRNYIHMH-NH2
SMILES: CCCCCCCCCCCCCCCC(=O)N[C@@H](CC(C)C)C(=O)N[C@@H](C)C(=O)N[C@@H](Cc1ccc(O)cc1)C(=O)N[C@@H](Cc1ccccc1)C(=O)N[C@@H](CCCNC(=N)N)C(=O)N[C@@H](CCCNC(=N)N)C(=O)N[C@@H](CC(C)C)C(=O)N[C@@H](Cc1c[nH]cn1)C(=O)N[C@@H](CO)C(=O)N[C@H](C(=O)N[C@@H](CCCNC(=N)N)C(=O)N[C@@H](CC(N)=O)C(=O)N[C@@H](Cc1ccc(O)cc1)C(=O)N[C@H](C(=O)N[C@@H](Cc1c[nH]cn1)C(=O)N[C@@H](CCSC)C(=O)N[C@@H](Cc1c[nH]cn1)C(N)=O)[C@@H](C)CC)[C@@H](C)O

Fold Shift of EC50: 1.3 fold | Inhibition of Maximal Response: 29.3%
B8: Compound 39 (peptide)
peptide: Palmitoyl-LYLHSLIFMAFFSEKKYL-NH2
SMILES: CCCCCCCCCCCCCCCC(=O)N[C@@H](CC(C)C)C(=O)N[C@@H](Cc1ccc(O)cc1)C(=O)N[C@@H](CC(C)C)C(=O)N[C@@H](Cc1c[nH]cn1)C(=O)N[C@@H](CO)C(=O)N[C@@H](CC(C)C)C(=O)N[C@H](C(=O)N[C@@H](Cc1ccccc1)C(=O)N[C@@H](CCSC)C(=O)N[C@@H](C)C(=O)N[C@@H](Cc1ccccc1)C(=O)N[C@@H](Cc1ccccc1)C(=O)N[C@@H](CO)C(=O)N[C@@H](CCC(=O)O)C(=O)N[C@@H](CCCCN)C(=O)N[C@@H](CCCCN)C(=O)N[C@@H](Cc1ccc(O)cc1)C(=O)N[C@@H](CC(C)C)C(N)=O)[C@@H](C)CC

Fold Shift of EC50: 0.7 fold | Inhibition of Maximal Response: 17.5%
B9: Compound 54 (peptide)
peptide: Palmitoyl-NIVRVLATKLRETNAGR-NH2
SMILES: CCCCCCCCCCCCCCCC(=O)N[C@@H](CC(N)=O)C(=O)N[C@H](C(=O)N[C@H](C(=O)N[C@@H](CCCNC(=N)N)C(=O)N[C@H](C(=O)N[C@@H](CC(C)C)C(=O)N[C@@H](C)C(=O)N[C@H](C(=O)N[C@@H](CCCCN)C(=O)N[C@@H](CC(C)C)C(=O)N[C@@H](CCCNC(=N)N)C(=O)N[C@@H](CCC(=O)O)C(=O)N[C@H](C(=O)N[C@@H](CC(N)=O)C(=O)N[C@@H](C)C(=O)NCC(=O)N[C@@H](CCCNC(=N)N)C(N)=O)[C@@H](C)O)[C@@H](C)O)C(C)C)C(C)C)[C@@H](C)CC

Fold Shift of EC50: 1.9 fold | Inhibition of Maximal Response: -24.9%
B10: Compound 2 (peptide)
peptide: Palmitoyl-RRLHSTRNYIH-NH2
SMILES: CCCCCCCCCCCCCCCC(=O)N[C@@H](CCCNC(=N)N)C(=O)N[C@@H](CCCNC(=N)N)C(=O)N[C@@H](CC(C)C)C(=O)N[C@@H](Cc1c[nH]cn1)C(=O)N[C@@H](CO)C(=O)N[C@H](C(=O)N[C@@H](CCCNC(=N)N)C(=O)N[C@@H](CC(N)=O)C(=O)N[C@@H](Cc1ccc(O)cc1)C(=O)N[C@H](C(=O)N[C@@H](Cc1c[nH]cn1)C(N)=O)[C@@H](C)CC)[C@@H](C)O

Fold Shift of EC50: 1.1 fold | Inhibition of Maximal Response: 21.9%
B11: Compound 38 (peptide)
peptide: Palmitoyl-LYLHSLIFMAFFSEKKYLWG-NH2
SMILES: CCCCCCCCCCCCCCCC(=O)N[C@@H](CC(C)C)C(=O)N[C@@H](Cc1ccc(O)cc1)C(=O)N[C@@H](CC(C)C)C(=O)N[C@@H](Cc1c[nH]cn1)C(=O)N[C@@H](CO)C(=O)N[C@@H](CC(C)C)C(=O)N[C@H](C(=O)N[C@@H](Cc1ccccc1)C(=O)N[C@@H](CCSC)C(=O)N[C@@H](C)C(=O)N[C@@H](Cc1ccccc1)C(=O)N[C@@H](Cc1ccccc1)C(=O)N[C@@H](CO)C(=O)N[C@@H](CCC(=O)O)C(=O)N[C@@H](CCCCN)C(=O)N[C@@H](CCCCN)C(=O)N[C@@H](Cc1ccc(O)cc1)C(=O)N[C@@H](CC(C)C)C(=O)N[C@@H](Cc1c[nH]c2ccccc12)C(=O)NCC(N)=O)[C@@H](C)CC

Fold Shift of EC50: 0.6 fold | Inhibition of Maximal Response: 26.1%
B12: Compound 55 (peptide)
peptide: Palmitoyl-NIVRVLATKLRE-NH2
SMILES: CCCCCCCCCCCCCCCC(=O)N[C@@H](CC(N)=O)C(=O)N[C@H](C(=O)N[C@H](C(=O)N[C@@H](CCCNC(=N)N)C(=O)N[C@H](C(=O)N[C@@H](CC(C)C)C(=O)N[C@@H](C)C(=O)N[C@H](C(=O)N[C@@H](CCCCN)C(=O)N[C@@H](CC(C)C)C(=O)N[C@@H](CCCNC(=N)N)C(=O)N[C@@H](CCC(=O)O)C(N)=O)[C@@H](C)O)C(C)C)C(C)C)[C@@H](C)CC

Fold Shift of EC50: 11.1 fold | Inhibition of Maximal Response: 1.7%
B13: Compound 52 (peptide)
peptide: Palmitoyl-TNAGRSDTRQQYRKLLKSTL-NH2
SMILES: CCCCCCCCCCCCCCCC(=O)N[C@H](C(=O)N[C@@H](CC(N)=O)C(=O)N[C@@H](C)C(=O)NCC(=O)N[C@@H](CCCNC(=N)N)C(=O)N[C@@H](CO)C(=O)N[C@@H](CC(=O)O)C(=O)N[C@H](C(=O)N[C@@H](CCCNC(=N)N)C(=O)N[C@@H](CCC(N)=O)C(=O)N[C@@H](CCC(N)=O)C(=O)N[C@@H](Cc1ccc(O)cc1)C(=O)N[C@@H](CCCNC(=N)N)C(=O)N[C@@H](CCCCN)C(=O)N[C@@H](CC(C)C)C(=O)N[C@@H](CC(C)C)C(=O)N[C@@H](CCCCN)C(=O)N[C@@H](CO)C(=O)N[C@H](C(=O)N[C@@H](CC(C)C)C(N)=O)[C@@H](C)O)[C@@H](C)O)[C@@H](C)O
